Experiment in all cases: SPR (Biacore); KD of H240-Kn061/H240-Hl071/L73-k0 divided by KD of the variant
One experiment concerns the target T1, FcgRIIa H (human, UniProt P12318 34-217).
T1 construct: extracellular domain; also called FcγRIIa H; FcγRIIa type H; not shown: His tag attached to the C terminus
T1 sequence (looked up): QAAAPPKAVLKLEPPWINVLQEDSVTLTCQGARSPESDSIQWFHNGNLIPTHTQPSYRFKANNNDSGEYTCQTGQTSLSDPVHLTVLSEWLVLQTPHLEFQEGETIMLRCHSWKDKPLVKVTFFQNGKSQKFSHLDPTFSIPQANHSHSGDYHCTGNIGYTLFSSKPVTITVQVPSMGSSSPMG
Here is the method:
(§1) The antibodies were assessed for the binding to each FcgR. […] The resultant value was defined as relative KD, and used as an assessment indicator.
(§2) Analysis of interaction between obj ective antibody and the FcγR was carried out using Biacore T100 (GE Healthcare), Biacore T200, Biacore A100, and Biacore 4000. HBS-EP+ (GE Healthcare) was used as the running buffer, and the measurement temperature was set to 25° C. Chips produced by immobilizing the antigen peptide by the amine coupling method to a Series S sensor Chip CM5 (GE Healthcare), chips produced by allowing preliminarily biotinylated antigen peptides to interact with and immobilize onto a Series S Sensor Chip SA (certified) (GE Healthcare), chips produced by immobilizing Protein L (ACTIGEN, BioVision) to Series S Sencor Chip CM5 (GE Healthcare), or chips produced by immobilizing Protein A/G (Thermo Scientific) to Series S Sencor Chip CM5 (GE Healthcare) were used. Antibodies of interest were captured onto these chips, and allowed to interact to each FcγR diluted with running buffer.

The target in experiment [1] is T2, FcgRIIb (human, UniProt P31994 43-217).
T2 construct: extracellular domain; also called FcγRIIb; not shown: His tag attached to the C terminus
T2 sequence (looked up): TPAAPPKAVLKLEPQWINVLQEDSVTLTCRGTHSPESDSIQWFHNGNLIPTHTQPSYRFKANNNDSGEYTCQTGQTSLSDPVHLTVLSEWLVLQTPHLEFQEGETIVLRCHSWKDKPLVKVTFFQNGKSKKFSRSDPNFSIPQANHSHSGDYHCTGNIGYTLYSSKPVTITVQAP
Here is the method:
as §1, §2

Experiment [2] concerns the target T3, FcgRIIIa V (human, UniProt P08637 17-208).
T3 construct: extracellular domain; also called FcγRIIIa V; not shown: His tag attached to the C terminus
Here is the method: as §1, §2

The next experiment has as its target T4, FcgRIIa R (human, UniProt P12318 34-217).
T4 construct: extracellular domain; also called FcγRIIa R; FcγRIIa type R; not shown: His tag attached to the C terminus
T4 sequence (looked up): T1 sequence (looked up) with H134R
Here is the method:
as §1, §2

Experiment [3] concerns the target T5, FcgRIIIa F (human, UniProt P08637 17-208).
T5 construct: extracellular domain; also called FcγRIIIa F; 3aF; not shown: His tag attached to the C terminus
Here is the method: as §1, §2

The target of experiment [4] is T2, FcgRIIb. This is another data set of the same source.
In experiment [5] the target is T3, FcgRIIIa V. The source holds these as a separate data set.
Experiment [6] addresses T5, FcgRIIIa F. The source holds these as a separate data set.

Positions count from the first letter of the chain named. Numbers in names are those of the source. Like-named read-outs stand apart in the source and are kept apart here.

T5 sequence (P08637 17-208): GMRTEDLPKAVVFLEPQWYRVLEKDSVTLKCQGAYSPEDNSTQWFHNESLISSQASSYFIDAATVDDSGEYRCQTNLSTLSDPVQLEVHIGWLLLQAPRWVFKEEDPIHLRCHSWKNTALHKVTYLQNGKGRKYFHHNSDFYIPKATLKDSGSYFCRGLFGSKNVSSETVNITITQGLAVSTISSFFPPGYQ
T3 sequence (P08637 17-208 F176V limits assumed): as the sequence (P08637 17-208) above, with F160V counted along it

B1: H240-Kn061 (Y235A)/H240-Hl071/L73-k0 (antibody, human IgG1, kappa)
heavy 1: QDQLVQSGAEVKKPGASVKVSCKASGFNIKDTYIQWVRQAPGQGLEWMGRIDPLRKQTKYREKFEGRVTITADTSTNTAYMELSSLRSEDTAVYYCVRSGREFDYWGQGTLVTVSSASTKGPSVFPLAPSSKSTSGGTAALGCLVKDYFPEPVTVSWNSGALTSGVHTFPAVLQSSGLYSLSSVVTVPSSSLGTQTYICNVNHKPSNTKVDKKVEPKSCDKTHTCPPCPAPEYAWGPSVFLFPPKPKDTLMISRTPEVTCVVVDVSDEDPEVKFNWYVDGVEVHNAKTKPREEQYNATYRVVSVLTVLHQDWLNGKEYKCKVSNKALPAPIEKTISKAKGQPREPQVCTLPPSRDELTKNQVSLWCLVKGFYPSDIAVEWESNGQPENNYKTTPPVLDSDGSFFLYSKLTVDKSRWQQGNVFSCSVMHEALHNHYTQKSLSLSP
heavy 2: QDQLVQSGAEVKKPGASVKVSCKASGFNIKDTYIQWVRQAPGQGLEWMGRIDPLRKQTKYREKFEGRVTITADTSTNTAYMELSSLRSEDTAVYYCVRSGREFDYWGQGTLVTVSSASTKGPSVFPLAPSSKSTSGGTAALGCLVKDYFPEPVTVSWNSGALTSGVHTFPAVLQSSGLYSLSSVVTVPSSSLGTQTYICNVNHKPSNTKVDKKVEPKSCDKTHTCPPCPAPELLGGPSVFLFPPKPKDTLMISRTPEVTCVVVDVSHEDPEVKFNWYVDGVEVHNAKTKPREEQYNSTYRVVSVLTVLHQDWLNGKEYKCKVSNDALPMPIEETISKAKGQPREPQVYTLPPSRCELTKNQVSLSCAVKGFYPSDIAVEWESNGQPENNYKTTPPVLDSDGSFFLVSKLTVDKSRWQQGNVFSCSVMHEALHNHYTQKSLSLSP
light: DIQMTQSPSSLSASVGDRVTITCRASQDIHKYIAWYQQKPGQAPRLLIQYTSTLQPGVPSRFSGSGSGTDYTFTISSLQPEDIATYYCLQYEQLRTFGGGTKVEIKRTVAAPSVFIFPPSDEQLKSGTASVVCLLNNFYPREAKVQWKVDNALQSGNSQESVTEQDSKDSTYSLSSTLTLSKADYEKHKVYACEVTHQGLSSPVTKSFNRGEC
Turning to B1, the “Relative KD” value was 0.5 with FcgRIIa H; 0.2 with FcgRIIb [1]; 1.3 with FcgRIIIa V [2]; 0.5 with FcgRIIa R; 1.2 in the experiment with FcgRIIIa F [3]; 0.2 with FcgRIIb [4]. In addition, the entries for the “Relative KD” value in the experiment with FcgRIIIa V [5] and with FcgRIIIa F [6] were 1.3 and 1.2, respectively.

B2: H240-Kn061 (Y234I)/H240-Hl071/L73-k0 (antibody, human IgG1, kappa)
heavy 1: B1 heavy 1 with Y233I, A234Y
heavy 2: B1 heavy 2
light: B1 light
Consider B2, for which the “Relative KD” value with FcgRIIa H is 2.6; with FcgRIIb [1] it was 7.7; in the experiment with FcgRIIIa V [2] it was 1.3; in the experiment with FcgRIIa R it was 4.1; in the experiment with FcgRIIIa F [3] it was 1.2.

B3: H240-Kn061/H240-Hl071 (F241N)/L73-k0 (antibody, human IgG1, kappa)
heavy 1: B1 heavy 1 with A234Y
heavy 2: B1 heavy 2 with F240N
light: B1 light
As for B3, the “Relative KD” value with FcgRIIa H amounted to 3.5; in the experiment with FcgRIIb [1], 1.1; with FcgRIIIa V [2], 0.7; in the experiment with FcgRIIa R it was 3.8; with FcgRIIIa F [3], 0.8.

B4: H240-Kn061 (S239L)/H240-Hl071/L73-k0 (antibody, human IgG1, kappa)
heavy 1: B1 heavy 1 with A234Y, S238L
heavy 2: B1 heavy 2
light: B1 light
In the case of B4, the “Relative KD” value with FcgRIIa H was 2.4; in the experiment with FcgRIIb [1], 3.4; in the experiment with FcgRIIIa V [2], 3.7; in the experiment with FcgRIIa R, 4.8; with FcgRIIIa F [3] it was 3.4.

B5: H240-Kn061 (Y235I)/H240-Hl071/L73-k0 (antibody, human IgG1, kappa)
heavy 1: B1 heavy 1 with A234I
heavy 2: B1 heavy 2
light: B1 light
Regarding B5, the “Relative KD” value in the experiment with FcgRIIa H is 0.4; with FcgRIIb [1], 0.2; with FcgRIIIa V [2] it was 1.6; with FcgRIIa R it was 0.7; with FcgRIIIa F [3], 1.3; with FcgRIIb [4] it was 0.2. The entries for the “Relative KD” value with FcgRIIIa V [5] and with FcgRIIIa F [6] were 1.6 and 1.3, respectively.

B6: H240-Kn061 (Y234E)/H240-Hl071/L73-k0 (antibody, human IgG1, kappa)
heavy 1: B1 heavy 1 with Y233E, A234Y
heavy 2: B1 heavy 2
light: B1 light
With B6, the “Relative KD” value with FcgRIIa H was found to be 0.7; with FcgRIIb [1], 0.5; with FcgRIIIa V [2], 1.6; with FcgRIIa R, 1.4; in the experiment with FcgRIIIa F [3] it was 1.9; with FcgRIIb [4], 0.5. In addition, the “Relative KD” value with FcgRIIIa V [5] came out at 1.6; with FcgRIIIa F [6], 1.9.

B7: H240-Kn061 (S239M)/H240-Hl071/L73-k0 (antibody, human IgG1, kappa)
heavy 1: B1 heavy 1 with A234Y, S238M
heavy 2: B1 heavy 2
light: B1 light
As for B7, the “Relative KD” value in the experiment with FcgRIIa H was 2; with FcgRIIb [1], 2.2; with FcgRIIIa V [2] it was 2.8; in the experiment with FcgRIIa R, 3.2; in the experiment with FcgRIIIa F [3], 2.2.

B8: H240-Kn061 (Y234L)/H240-Hl071/L73-k0 (antibody, human IgG1, kappa)
heavy 1: B1 heavy 1 with Y233L, A234Y
heavy 2: B1 heavy 2
light: B1 light
B8: the “Relative KD” value with FcgRIIa H turned out to be 1.5; in the experiment with FcgRIIb [1], 3.5; with FcgRIIIa V [2], 1.2; with FcgRIIa R, 2.2; with FcgRIIIa F [3], 1.1.

B9: H240-Kn061 (S239V)/H240-Hl071/L73-k0 (antibody, human IgG1, kappa)
heavy 1: B1 heavy 1 with A234Y, S238V
heavy 2: B1 heavy 2
light: B1 light
For B9, the “Relative KD” value with FcgRIIa H came to 2.4; with FcgRIIb [1], 3.4; with FcgRIIIa V [2], 2.9; with FcgRIIa R it was 4.2; with FcgRIIIa F [3], 2.4.

B10: H240-Kn061/H240-Hl071 (V240H)/L73-k0 (antibody, human IgG1, kappa)
heavy 1: B1 heavy 1 with A234Y
heavy 2: B1 heavy 2 with V239H
light: B1 light
For B10, the “Relative KD” value with FcgRIIa H turned out to be 0.8; with FcgRIIb [1] it was 0.3; in the experiment with FcgRIIIa V [2], 1; with FcgRIIa R, 0.7; in the experiment with FcgRIIIa F [3], 1.3.

B11: H240-Kn061 (Y235P)/H240-Hl071/L73-k0 (antibody, human IgG1, kappa)
heavy 1: B1 heavy 1 with A234P
heavy 2: B1 heavy 2
light: B1 light
Consider B11, for which the “Relative KD” value in the experiment with FcgRIIa H was found to be 0.4; in the experiment with FcgRIIb [1], 0.5; with FcgRIIIa V [2] it was 1.5; with FcgRIIa R, 0.6; in the experiment with FcgRIIIa F [3] it was 1.1; in the experiment with FcgRIIb [4], 0.5. Further, the figures for the “Relative KD” value with FcgRIIIa V [5] and with FcgRIIIa F [6] were 1.5 and 1.1, respectively.

The values above are taken from patent publication US20180155451A1 (published 2018).
